± gives the uncertainty stated by the source.

A short description of this data set: abundance fitness (aPCA) (normalised: wild type 0, dead -1); higher = more abundant; growth selection in yeast, the domain comes from the species named. The following applies: Homo sapiens.
On to “BAG family molecular chaperone regulator 3 T47R, O95817”, for which the abundance fitness is -0.728 ± 0.13.

The substance “BAG family molecular chaperone regulator 3 T47V, O95817” had an abundance fitness of -0.302 ± 0.073.

In the case of “BAG family molecular chaperone regulator 3 T48I, O95817”, the abundance fitness is -0.354 ± 0.14.

The substance “BAG family molecular chaperone regulator 3 V12A, O95817” displayed an abundance fitness of -0.03 ± 0.12.

“BAG family molecular chaperone regulator 3 V12D, O95817” displayed an abundance fitness of 0.092 ± 0.16.

With “BAG family molecular chaperone regulator 3 V12E, O95817”, the abundance fitness is -0.594 ± 0.26.

With “BAG family molecular chaperone regulator 3 V12F, O95817”, the abundance fitness is 0.051 ± 0.19.

Substance “BAG family molecular chaperone regulator 3 V12G, O95817” had an abundance fitness of -0.443 ± 0.069.

“BAG family molecular chaperone regulator 3 V12H, O95817” gave an abundance fitness of -0.48 ± 0.33.

“BAG family molecular chaperone regulator 3 V12I, O95817” had an abundance fitness of 0.446 ± 0.11.

“BAG family molecular chaperone regulator 3 V12L, O95817” displayed an abundance fitness of 0.208 ± 0.066.

“BAG family molecular chaperone regulator 3 V12M, O95817” yielded an abundance fitness of -0.393 ± 0.4.

The substance “BAG family molecular chaperone regulator 3 V12N, O95817” showed an abundance fitness of 0.139 ± 0.15.

Turning to “BAG family molecular chaperone regulator 3 V12Q, O95817”, the abundance fitness was found to be 0.065 ± 0.16.

In the case of “BAG family molecular chaperone regulator 3 V12R, O95817”, the abundance fitness is -0.594 ± 0.21.

Turning to “BAG family molecular chaperone regulator 3 V12S, O95817”, the abundance fitness was -0.14 ± 0.15.

Regarding “BAG family molecular chaperone regulator 3 V12T, O95817”, the abundance fitness is -0.52 ± 0.43.

“BAG family molecular chaperone regulator 3 V12W, O95817”: the abundance fitness is -0.571 ± 0.32.

“BAG family molecular chaperone regulator 3 V12Y, O95817”: the abundance fitness stood at 0.199 ± 0.12.

“BAG family molecular chaperone regulator 3 V40A, O95817” had an abundance fitness of -0.556 ± 0.17.

Regarding “BAG family molecular chaperone regulator 3 V40C, O95817”, the abundance fitness was -0.269 ± 0.13.

For the substance “BAG family molecular chaperone regulator 3 V40D, O95817”, the abundance fitness was -0.808 ± 0.42.

Take “BAG family molecular chaperone regulator 3 V40E, O95817”: the abundance fitness is -0.661 ± 0.18.

On to “BAG family molecular chaperone regulator 3 V40F, O95817”, for which the abundance fitness is -0.533 ± 0.4.

With “BAG family molecular chaperone regulator 3 V40G, O95817”, the abundance fitness was -0.541 ± 0.087.

“BAG family molecular chaperone regulator 3 V40H, O95817” yielded an abundance fitness of -0.082 ± 0.17.

For “BAG family molecular chaperone regulator 3 V40I, O95817”, the abundance fitness was -0.084 ± 0.069.

Substance “BAG family molecular chaperone regulator 3 V40K, O95817” yielded an abundance fitness of -0.64 ± 0.098.

In turn, “BAG family molecular chaperone regulator 3 V40L, O95817” came in with an abundance fitness of -0.664 ± 0.084.

For “BAG family molecular chaperone regulator 3 V40M, O95817”, the abundance fitness was 0.03 ± 0.16.

With “BAG family molecular chaperone regulator 3 V40N, O95817”, the abundance fitness was 0.081 ± 0.23.

With “BAG family molecular chaperone regulator 3 V40Q, O95817”, the abundance fitness is -0.642 ± 0.13.

“BAG family molecular chaperone regulator 3 V40R, O95817”: the abundance fitness is -0.637 ± 0.13.

“BAG family molecular chaperone regulator 3 V40S, O95817” had an abundance fitness of -0.745 ± 0.21.

With “BAG family molecular chaperone regulator 3 V40T, O95817”, the abundance fitness was -0.959 ± 0.24.

In turn, “BAG family molecular chaperone regulator 3 V40W, O95817” had an abundance fitness of -0.468 ± 0.21.

For “BAG family molecular chaperone regulator 3 V54A, O95817”, the abundance fitness is -0.719 ± 0.26.

The substance “BAG family molecular chaperone regulator 3 V54C, O95817” returned an abundance fitness of -0.022 ± 0.12.

“BAG family molecular chaperone regulator 3 V54D, O95817” came in with an abundance fitness of -0.08 ± 0.23.

In turn, “BAG family molecular chaperone regulator 3 V54E, O95817” displayed an abundance fitness of -0.591 ± 0.28.

In turn, “BAG family molecular chaperone regulator 3 V54F, O95817” gave an abundance fitness of -0.375 ± 0.31.

For the substance “BAG family molecular chaperone regulator 3 V54G, O95817”, the abundance fitness is -0.07 ± 0.077.

Substance “BAG family molecular chaperone regulator 3 V54I, O95817” displayed an abundance fitness of -0.335 ± 0.13.

“BAG family molecular chaperone regulator 3 V54K, O95817” came in with an abundance fitness of -0.008 ± 0.14.

“BAG family molecular chaperone regulator 3 V54L, O95817” showed an abundance fitness of 0.369 ± 0.097.

For the substance “BAG family molecular chaperone regulator 3 V54M, O95817”, the abundance fitness was determined as 0.19 ± 0.22.

Substance “BAG family molecular chaperone regulator 3 V54P, O95817” registered an abundance fitness of -0.832 ± 0.42.

Substance “BAG family molecular chaperone regulator 3 V54Q, O95817” gave an abundance fitness of -0.084 ± 0.23.

In the case of “BAG family molecular chaperone regulator 3 V54R, O95817”, the abundance fitness was -0.083 ± 0.081.

As to “BAG family molecular chaperone regulator 3 V54S, O95817”, the abundance fitness is -0.13 ± 0.13.

“BAG family molecular chaperone regulator 3 V54W, O95817” came in with an abundance fitness of -0.961 ± 0.37.

As for “BAG family molecular chaperone regulator 3 V54Y, O95817”, the abundance fitness was -0.376 ± 0.25.

“BAG family molecular chaperone regulator 3 W26A, O95817” showed an abundance fitness of -0.534 ± 0.092.

Substance “BAG family molecular chaperone regulator 3 W26D, O95817” returned an abundance fitness of -0.621 ± 0.37.

As for “BAG family molecular chaperone regulator 3 W26E, O95817”, the abundance fitness is -0.885 ± 0.25.

Consider “BAG family molecular chaperone regulator 3 W26F, O95817”, for which the abundance fitness was 0.4 ± 0.21.

Regarding “BAG family molecular chaperone regulator 3 W26G, O95817”, the abundance fitness was -0.653 ± 0.17.

The substance “BAG family molecular chaperone regulator 3 W26H, O95817” had an abundance fitness of -0.362 ± 0.069.

“BAG family molecular chaperone regulator 3 W26I, O95817” gave an abundance fitness of -0.608 ± 0.34.

In the case of “BAG family molecular chaperone regulator 3 W26K, O95817”, the abundance fitness is 0.189 ± 0.081.

Substance “BAG family molecular chaperone regulator 3 W26L, O95817” registered an abundance fitness of -0.583 ± 0.14.

The substance “BAG family molecular chaperone regulator 3 W26M, O95817” came in with an abundance fitness of -0.721 ± 0.2.

For the substance “BAG family molecular chaperone regulator 3 W26P, O95817”, the abundance fitness was -0.892 ± 0.39.

For “BAG family molecular chaperone regulator 3 W26Q, O95817”, the abundance fitness was -0.641 ± 0.33.

In turn, “BAG family molecular chaperone regulator 3 W26R, O95817” returned an abundance fitness of -0.228 ± 0.1.

Substance “BAG family molecular chaperone regulator 3 W26S, O95817” registered an abundance fitness of -0.381 ± 0.12.

“BAG family molecular chaperone regulator 3 W26T, O95817”: the abundance fitness was -0.335 ± 0.074.

“BAG family molecular chaperone regulator 3 W26V, O95817” registered an abundance fitness of -0.467 ± 0.2.

As for “BAG family molecular chaperone regulator 3 W26Y, O95817”, the abundance fitness is -0.326 ± 0.48.

“BAG family molecular chaperone regulator 3 W36A, O95817” displayed an abundance fitness of 0.844 ± 0.49.

For “BAG family molecular chaperone regulator 3 W36E, O95817”, the abundance fitness came out at 1.43 ± 0.23.

In the case of “BAG family molecular chaperone regulator 3 W36G, O95817”, the abundance fitness is 0.48 ± 0.35.

“BAG family molecular chaperone regulator 3 W36K, O95817”: the abundance fitness stood at 1.09 ± 0.12.

In the case of “BAG family molecular chaperone regulator 3 W36R, O95817”, the abundance fitness was 0.623 ± 0.3.

Substance “BAG family molecular chaperone regulator 3 W36S, O95817” yielded an abundance fitness of 1.56 ± 0.45.

“BAG family molecular chaperone regulator 3 W36T, O95817” came in with an abundance fitness of 1.25 ± 0.32.

In turn, “BAG family molecular chaperone regulator 3 W36V, O95817” displayed an abundance fitness of 1.02 ± 0.24.

Turning to “BAG family molecular chaperone regulator 3 W49C, O95817”, the abundance fitness was -0.634 ± 0.29.

“BAG family molecular chaperone regulator 3 W49D, O95817” showed an abundance fitness of -0.572 ± 0.44.

In the case of “BAG family molecular chaperone regulator 3 W49E, O95817”, the abundance fitness is -0.221 ± 0.12.

Substance “BAG family molecular chaperone regulator 3 W49F, O95817” returned an abundance fitness of -0.227 ± 0.42.

(Values after the Human Domainome abundance scans (Beltran et al. 2025).)
